PMC10397247

Legend:
Assay in all cases: two-hybrid library CCNG1;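 note: natural log of median RNA to DNA barcode read ratio; higher means stronger binding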
4H1338-bN = target: T1, 4H1338-bN
T1 chain: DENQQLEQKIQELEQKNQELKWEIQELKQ

4H1348-bN = target: T2, 4H1348-bN
T2 chain: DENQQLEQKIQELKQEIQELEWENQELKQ

4H1373-bN = target: T3, 4H1373-bN
T3 chain: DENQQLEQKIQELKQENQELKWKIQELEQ

4H1449-bN = target: T4, 4H1449-bN
T4 chain: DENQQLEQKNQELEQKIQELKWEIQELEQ

4H1544-bN = target: T5, 4H1544-bN
T5 chain: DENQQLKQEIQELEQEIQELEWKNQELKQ

4H1710-bN = target: T6, 4H1710-bN
T6 chain: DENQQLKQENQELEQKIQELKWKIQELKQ

4H1899-bN = target: T7, 4H1899-bN
T7 chain: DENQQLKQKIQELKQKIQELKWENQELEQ

4H1985-bN = target: T8, 4H1985-bN
T8 chain: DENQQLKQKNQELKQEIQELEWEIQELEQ

4H2702-bA = target: T9, 4H2702-bA
T9 chain: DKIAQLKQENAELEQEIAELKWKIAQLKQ

4H3613-bN = target: T10, 4H3613-bN
T10 chain: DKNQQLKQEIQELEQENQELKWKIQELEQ

4H3628-bN = target: T11, 4H3628-bN
T11 chain: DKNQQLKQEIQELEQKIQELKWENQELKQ

4H3817-bN = target: T12, 4H3817-bN
T12 chain: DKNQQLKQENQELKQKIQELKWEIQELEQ

4H3858-bN = target: T13, 4H3858-bN
T13 chain: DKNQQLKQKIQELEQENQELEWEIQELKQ

4H3974-bN = target: T14, 4H3974-bN
T14 chain: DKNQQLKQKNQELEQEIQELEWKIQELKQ

4H570-bN = target: T15, 4H570-bN
T15 chain: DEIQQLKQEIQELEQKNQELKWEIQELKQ

4H850-bN = target: T16, 4H850-bN
T16 chain: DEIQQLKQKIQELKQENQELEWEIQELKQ

DENQQLEQKIQELEQKNQELKWEIQELKQ [4H1338-bN]
interaction score (4H1338-bN): 0.0248
interaction score (4H1348-bN): -1.29
interaction score (4H1373-bN): -1.16
interaction score (4H1449-bN): -0.847
interaction score (4H1544-bN): 0.114
interaction score (4H1710-bN): -0.345
interaction score (4H1899-bN): -2.73
interaction score (4H1985-bN): -0.88
interaction score (4H2702-bA): -2.23
interaction score (4H3613-bN): -0.479
interaction score (4H3628-bN): -0.229
interaction score (4H3817-bN): -0.326
interaction score (4H3858-bN): 1.37
interaction score (4H3974-bN): -0.674
interaction score (4H570-bN): -0.567
interaction score (4H850-bN): 0.8
